Reference: the RNAGym collection of RNA variant scans (doi:10.7554/elife.90254)

B1: LINE1-mini (parent)
chain: GGCAGAGCUCAACACAGCGUGGCAAAGUGGCUGUGGCUAGACUGCC

Variants of: B1
Assay: self-cleavage, relative activity (ratio to wild type); higher = more cleavage; in vitro, sequencing; the parent is a self-cleaving ribozyme

Variant	self-cleavage
GGCAGAGCCCAACACAGCGUGGCAAAGUGGCAGUGGCUAGACUGCC	0.02
GGCAGAGCCCAACACAGCGUGGCAAAGUGGCGGUGGCUAGACUGCC	0.03
GGCAGAGCCCAACACAGCGUGGCAAAGUGGCCGUGGCUAGACUGCC	0.04
GGCAGAGCCCAACACAGCGUGGCAAAGUGGCUGUGGCUAGACUACC	0.04
GGCAGAGCCCAACACAGCGUGGCAAAGUGGCUGUGGCUAGACUCCC	0.02
GGCAGAGCCCAACACAGCGUGGCAAAGUGGCUGUGGCUAGACUUCC	0.02
GGCAGAGCCCAACACAGCGUGGCAAAGUGGCUGUGUCUAGACUGCC	0.03
GGCAGAGCCCAACACAGCGUGGCAAAGUGGCUGUGACUAGACUGCC	0.09
GGCAGAGCCCAACACAGCGUGGCAAAGUGGCUGUGCCUAGACUGCC	0.03
GGCAGAGCCCAACACAGCGUGGCAAAGUGGCUGGGGCUAGACUGCC	0.03
GGCAGAGCCCAACACAGCGUGGCAAAGUGGCUGAGGCUAGACUGCC	0.04
GGCAGAGCCCAACACAGCGUGGCAAAGUGGCUGCGGCUAGACUGCC	0.04
GGCAGAGCCCAACACAGCGUGGCAAAGUGGCUUUGGCUAGACUGCC	0.03
GGCAGAGCCCAACACAGCGUGGCAAAGUGGCUCUGGCUAGACUGCC	0.03
GGCAGAGCCCAACACAGCGUGGCAAAGUGGCUAUGGCUAGACUGCC	0.06
GGCAGAGCGCAUCACAGCGUGGCAAAGUGGCUGUGGCUAGACUGCC	0.14
GGCAGAGCGCAGCACAGCGUGGCAAAGUGGCUGUGGCUAGACUGCC	0.02
GGCAGAGCGCACCACAGCGUGGCAAAGUGGCUGUGGCUAGACUGCC	0.02
GGCAGAGCGCAACACAGCGUGGUAAAGUGGCUGUGGCUAGACUGCC	0.07

Variant	self-cleavage
GGCAGAGCGCAACACAGCGUGGGAAAGUGGCUGUGGCUAGACUGCC	0.15
GGCAGAGCGCAACACAGCGUGGAAAAGUGGCUGUGGCUAGACUGCC	0.11
GGCAGAGCGAAACACAGCGUGGCAAAGUGGCUGUGGCUAGACUGCC	0.03
GGCAGAGCGUAACACAGCGUGGCAAAGUGGCUGUGGCUAGACUGCC	0.05
GGCAGAGCGGAACACAGCGUGGCAAAGUGGCUGUGGCUAGACUGCC	0.02
GGCAGAGCCCAACACAGCGUUGCAAAGUGGCUGUGGCUAGACUGCC	0.04
GGCAGAGCCCAACACAGCGUCGCAAAGUGGCUGUGGCUAGACUGCC	0.06
GGCAGAGCCCAACACAGCGUAGCAAAGUGGCUGUGGCUAGACUGCC	0.04
GGCAGAGCGCAACACAGCGUGGCAACGUGGCUGUGGCUAGACUGCC	0.21
GGCAGAGCGCAACACAGCGUGGCAAUGUGGCUGUGGCUAGACUGCC	0.15
GGCAGAGCGCAACACAGCGUGGCAAGGUGGCUGUGGCUAGACUGCC	0.04
GGCAGAGCGCAACACUGCGUGGCAAAGUGGCUGUGGCUAGACUGCC	0.14
GGCAGAGCGCAACACGGCGUGGCAAAGUGGCUGUGGCUAGACUGCC	0.07
GGCAGAGCGCAACACCGCGUGGCAAAGUGGCUGUGGCUAGACUGCC	0.03
GGCAGAGCCCAACACAGCGUGGCAAAGUGGCUGUCGCUAGACUGCC	0.04
GGCAGAGCCCAACACAGCGUGGCAAAGUGGCUGUUGCUAGACUGCC	0.03
GGCAGAGCCCAACACAGCGUGGCAAAGUGGCUGUAGCUAGACUGCC	0.06
GGCAGAGCGCAACACAGCGUGGCAAAGUGGAUGUGGCUAGACUGCC	0.04
GGCAGAGCGCAACACAGCGUGGCAAAGUGGUUGUGGCUAGACUGCC	0.03

Variant	self-cleavage
GGCAGAGCGCAACACAGCGUGGCAAAGUGGGUGUGGCUAGACUGCC	0.04
GGCAGAGCGCAACAAAGCGUGGCAAAGUGGCUGUGGCUAGACUGCC	0.1
GGCAGAGCGCAACAUAGCGUGGCAAAGUGGCUGUGGCUAGACUGCC	0.17
GGCAGAGCGCAACAGAGCGUGGCAAAGUGGCUGUGGCUAGACUGCC	0.43
GGCAGAGCGCAACACAGCGUGGCAAAGUGGCUGUGGCUAGGCUGCC	0.08
GGCAGAGCGCAACACAGCGUGGCAAAGUGGCUGUGGCUAGUCUGCC	0.14
GGCAGAGCGCAACACAGCGUGGCAAAGUGGCUGUGGCUAGCCUGCC	0.04
GGCAGAGCCCAACACAUCGUGGCAAAGUGGCUGUGGCUAGACUGCC	0.04
GGCAGAGCCCAACACAACGUGGCAAAGUGGCUGUGGCUAGACUGCC	0.02
GGCAGAGCCCAACACACCGUGGCAAAGUGGCUGUGGCUAGACUGCC	0.04
GGCAGAGCCCAACACAGCGUGGCAAAGUGGCUGUGGCUAGACGGCC	0.01
GGCAGAGCCCAACACAGCGUGGCAAAGUGGCUGUGGCUAGACCGCC	0.02
GGCAGAGCCCAACACAGCGUGGCAAAGUGGCUGUGGCUAGACAGCC	0.03
GGCAGAGCCCAACACAGCUUGGCAAAGUGGCUGUGGCUAGACUGCC	0.08
GGCAGAGCCCAACACAGCAUGGCAAAGUGGCUGUGGCUAGACUGCC	0.04
GGCAGAGCCCAACACAGCCUGGCAAAGUGGCUGUGGCUAGACUGCC	0.05
GGCAGAGCGCAACGCAGCGUGGCAAAGUGGCUGUGGCUAGACUGCC	0.12
GGCAGAGCGCAACUCAGCGUGGCAAAGUGGCUGUGGCUAGACUGCC	0.06
